Values quoted from earlier work, collected in article PMC8920573.

Target: SARS-CoV main protease main protease (Severe acute respiratory syndrome coronavirus) (UniProt P0C6X7)

For “SARS-CoV main protease main protease (from UniProt P0C6X7)”, the Kd is listed as 2.5 µM.
